Substitutions are numbered along the chain they refer to.
B1: E35 (designed binder)
10Fn3 domain: MGVSDVPRDLEVVAATPTSLLISWTPPGHQHQYYRITYGETGGNSPVQEFTVPGQVTTATISGLKPGVDYTITVYAVTDYYNPATHYYTYYTTPISINYRTEIDKPSQ
B2: E41 (designed binder)
10Fn3 domain: MGVSDVPRDLEVVAATPTSLLISWTPPNSGHNYYRITYGETGGNSPVQEFTVPHDLTTATISGLKPGVDYTITVYAVTDYYNPNTYEYTYQFTPISINYRTEIDKPSQ
B3: E38 (designed binder)
10Fn3 domain: MGVSDVPRDLEVVAATPTSLLISWNARTDAYQYYRITYGETGGNSPVQEFTVPRDLETATISGLKPGVDYTITVYAVTDYKPHADGPHTYQESPISINYRTEIDKPSQ
B4: E44 (designed binder)
10Fn3 domain: MGVSDVPRDLEVVAATPTSLLISWDSEGPSYQYYRITYGETGGNSPVQEFTVPYAVYTATISGLKPGVDYTITVYAVTDYYNPRTHELFFQQYPISINYRTEIDKPSQ
B5: E40 (designed binder)
10Fn3 domain: MGVSDVPRDLEVVAATPTSLLISWVLGRRVYQYYRITYGETGGNSPVQEFTVPGAVYTATISGLKPGVDYTITVYAVTDYFNPATHEYQYELTPISINYRTEIDKPSQ
B6: E33 (designed binder)
10Fn3 domain: MGVSDVPRDLEVVAATPTSLLISWASRKEVYQYYRITYGETGGNSPVQEFTVPGWLNTATISGLKPGVDYTITVYAVTDYMHVEYAEYPISINYRTEIDKPSQ
B7: E32 (designed binder)
10Fn3 domain: MGVSDVPRDLEVVAATPTSLLISWVSLVGFYQYYRITYGETGGNSPVQEFTVPGGVHTATISGLKPGVDYTITVYAVTDYKPHADGPHTYHESPISINYRTEIDKPSQ
B8: E39 (designed binder)
10Fn3 domain: B7 10Fn3 domain with V25Q, S26V, L27S, V28A, G29F, F30R, G55M, H57S, H91S, S93Y
B9: E34 (designed binder)
10Fn3 domain: B7 10Fn3 domain with V25L, S26A, L27P, V28F, G29W, F30R, H57R
B10: E36 (designed binder)
10Fn3 domain: B7 10Fn3 domain with V25E, L27G, V28S, G29R, F30T, P66T, S93Y
B11: E43 (designed binder)
10Fn3 domain: B7 10Fn3 domain with V25S, S26G, L27G, V28F, G29M, F30R, G55Q, H57Y
B12: E42 (designed binder)
10Fn3 domain: MGVSDVPRDLEVVAATPTSLLISWVVPNWMYQYYRITYGETGGNSPVQEFTVPGMLETATISGLKPGVDYTITVYAVTDYYNPTTYEYTYFTYPISINYRTEIDKPSQ
B13: E37 (designed binder)
10Fn3 domain: MGVSDVPRDLEVVAATPTSLLISWERTSTHYQYYRITYGETGGNSPVQEFTVPGRVYTATISGLKPGVDYTITVYAVTDYYNPATHEYKYHQTPISINYRTEIDKPSQ
B14: E45 (designed binder)
10Fn3 domain: MGVSDVPRDLEVVAATPTSLLISWQVPRPMYQYYRITYGEKGGNSPVQEFTVPHDLRTATISGLKPGVDYTITVYAVTDYYDPTSNLYNYNQTPISINYRTEIDKPSQ
B15: E74 (designed binder)
10Fn3 domain: MGVSDVPRDLEVVAATPTSLLISWRASGGLYQYYRITYGETGGNSPVQEFTVPGSVNTATISGLKPGVDYTITVYAVTDFYNPATYEYIYHTTPISINYRTEIDKPSQ
B16: E75 (designed binder)
10Fn3 domain: MGVSDVPRDLEVVAATPTSLLISWAAGRATYQYYRITYGETGGNSPVQEFTVPYDVTTATISGLKPGVDYTITVYAVTDFYNPATHEYYYETTPISINYRTEIDKPSQ
B17: E73 (designed binder)
10Fn3 domain: MGVSDVPRDLEVVVATPTSLLISWTKLLGGYQYYRITYGETGGNSPVQEFTVPGPVYTATISGLKPGVDYTITVYAVTDFFNPRTHEYQYHTTPISINYRTEIDKPSQ
B18: E76 (designed binder)
10Fn3 domain: MGVSDVPRDLEVVAATPTSLLISWYSQPLTYQYYRITYGETGGNSPVQEFTVPHDVNTATISGLKPGVDYTITVYAVTDFYNPETHEYTYHLTPISINYRTEIDKPSQ
B19: E71 (designed binder)
10Fn3 domain: MGVSDVPRDLEVVAATPTSLLISWWFGTSSYQYYRITYGETGGNSPVQEFTVPGDLKTATISGLKPGVDYTITVYAVTDYFNPVTHEYEYHTTPISINYRTEIDKPSQ
B20: E67 (designed binder)
10Fn3 domain: MGVSDVPRDLEVVAATPTSLLISWSSVMGLYQYYRITYGETGGNSPVQEFTVPYDVYTATISGLKPGVDYTITVYAVTDYYNPSTYEYKYNTTPISINYRTEIDKPSQ
B21: E72 (designed binder)
10Fn3 domain: B20 10Fn3 domain with S26A, V27T, M28R, G29T, Y57H, P83M, S84V, K89N, N91H, T92L
B22: E59 (designed binder)
10Fn3 domain: B16 10Fn3 domain with A25R, G27R, A29L, T30Q, Y54G, D55M, H86M, Y89T, E91Q, T92R
B23: E70 (designed binder)
10Fn3 domain: MGVSDVPRDLEVVAATPTSLLISWVSARGRYQYYRITYGETGGNSPVQEFTVPGGVRTATISGLKPGVDYTITVYAVTDYYNLETYEYHYYRTPISINYRTEIDKPSQ
B24: E61 (designed binder)
10Fn3 domain: B15 10Fn3 domain with R25D, G28Q, L30N, S55A, N57K, Y81F, Y86H
B25: E69 (designed binder)
10Fn3 domain: B16 10Fn3 domain with A25H, R28M, T30V, Y54G, T57L, Y81F, A84V, Y89M, E91H, T93I
B26: E62 (designed binder)
10Fn3 domain: MGVSDVPRDLEVVAATPTSLLISWCLDGQLYQYYRITYGETGGNSPVQEFTVPGSIVTATISGLKPGVDYTITVYAVTDWYNLATHEYNYRVTPISINYRTEIDKPSQ
B27: E60 (designed binder)
10Fn3 domain: MGVSDVPRDLEVVAATPTSLLISWLQPLWRYQYYRITYGETGGNSPVQEFTVPGGLDTATISGLKPGVDYTITVYAVTDYKPHVDGPHAYHEYPISINYRTEIDKPSQ
B28: E64 (designed binder)
10Fn3 domain: B16 10Fn3 domain with A25D, A26S, R28N, A29G, D55R, T57Y, F80Y, Y89T, T92L, T93R
B29: E63 (designed binder)
10Fn3 domain: MGVSDVPRDLEVVAATPTSLLISWDTSGASYQYYRITYGETGGNSPVQEFTVPYSVYTATISGLKPGVDYTITVYAVTDYYDPDSHYYNYNMVPISINYRTEIDKPSQ
B30: E65 (designed binder)
10Fn3 domain: MGVSDVPRDLEVVATTPTSLLISWRPTSQVYQYYRITYGETGGNSPVQEFTVPYNVYTATISGLKPGVDYTITVYAVTDFFNYATHEYIYHTIPISINYRTEIDKPSQ
B31: E66 (designed binder)
10Fn3 domain: MGVSDVPRDLEVVAATPTSLLISWKSYGSAYQYYRITYGETGGNSPVQEFTVPGDLQTATISGLKPGVDYTITVYAITDYYNPDTHEYKYHVSPISINYRTEIDKPSQ
B32: E68 (designed binder)
10Fn3 domain: MGVSDVPRDLEVVAATPTSLLISWKTEPGRHQYYRITYGETGGNSPVQEFTVPGGVRTATISGLKPGVDYTITVYAVTDWYNLVSHEYVYHTTPISINYRTEIDKPSQ

target: T1, EGFR on the surface of human tumour cells (A431, H292) (human, UniProt P00533 25-1210); experiment: cell-based or functional assay

| % inhibition of EGFR phosphorylation at 100 nM binder, cell-based assay [%] | Binder |
| --- | --- |
| 90.2 | B1 |
| 75.2 | B2 |
| 89.8 | B3 |
| 83.3 | B4 |
| 89.6 | B5 |
| 75.8 | B6 |
| 86 | B7 |
| 76.7 | B8 |
| 80.4 | B9 |
| 81.3 | B10 |
| 75 | B11 |
| 77.3 | B12 |
| 80.8 | B13 |
| 80.4 | B14 |

target: T1, EGFR on the surface of human tumour …; experiment: cell-based or functional assay; remark: another data set of the same source

| % inhibition of EGFR phosphorylation at 100 nM binder, cell-based assay [%] | Binder |
| --- | --- |
| 80.9 | B15 |
| 76.5 | B16 |
| 78.8 | B17 |
| 79 | B18 |

target: T1, EGFR on the surface of human tumour …; experiment: cell-based or functional assay; remark: another data set of the same source

| % inhibition of EGFR phosphorylation at 100 nM binder, cell-based assay [%] | Binder |
| --- | --- |
| 80.4 | B19 |
| 75.3 | B20 |
| 82.8 | B21 |
| 76.3 | B22 |
| 76.8 | B23 |
| 79.8 | B24 |
| 85.1 | B25 |
| 78.9 | B26 |
| 100 | B27 |
| 78.2 | B28 |
| 76.2 | B29 |
| 80.7 | B30 |
| 75 | B31 |
| 78.5 | B32 |
